Literature values, collected in article PMC5567442.

Molecular target: Kv1.3 (UniProt P22001)
Sequence of UniProt P22001 (P22001 whole entry): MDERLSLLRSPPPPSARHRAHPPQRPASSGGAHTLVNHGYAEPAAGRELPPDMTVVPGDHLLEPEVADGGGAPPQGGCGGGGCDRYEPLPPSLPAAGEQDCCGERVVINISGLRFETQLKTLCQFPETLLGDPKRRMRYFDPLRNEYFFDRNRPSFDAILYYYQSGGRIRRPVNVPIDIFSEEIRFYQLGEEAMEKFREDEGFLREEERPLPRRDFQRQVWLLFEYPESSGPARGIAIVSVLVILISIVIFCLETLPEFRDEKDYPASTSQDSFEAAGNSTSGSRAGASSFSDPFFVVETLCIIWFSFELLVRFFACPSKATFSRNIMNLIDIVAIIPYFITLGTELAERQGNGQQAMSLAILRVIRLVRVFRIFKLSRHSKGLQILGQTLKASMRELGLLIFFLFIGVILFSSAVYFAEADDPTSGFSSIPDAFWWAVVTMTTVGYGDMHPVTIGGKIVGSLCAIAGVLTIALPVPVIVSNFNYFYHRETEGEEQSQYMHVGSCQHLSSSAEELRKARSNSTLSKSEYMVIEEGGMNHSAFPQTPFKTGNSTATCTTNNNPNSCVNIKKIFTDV

Agitoxin-2 (from UniProt P46111)
Kd: 177 pM
